Measured values: the supplement of paper PMC9732359
± gives the uncertainty stated by the source.

Test: protein stability index of a GFP-peptide fusion (yeast GPS) (PSI 1-4); higher = more stable; sorted into four equal gates, so the index is relative within each strain
Details: doa10∆
Summary of the method: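 For each peptide, the protein stability index sums the read frequency in every gate after multiplying it by the gate number. Read frequencies came from plasmids that were PCR-amplified from each gate and Illumina-sequenced, with reads assigned to strains by barcodes. The gates were four equal bins of GFP/Cherry fluorescence ratio applied to mid-log yeast in leucine-free medium carrying a pooled library of tiled 17-residue yeast protein peptides fused downstream of GFP on a Cherry-expressing plasmid.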

Row | Sequence | protein stability index
1 | RFRGKRVVYLKHLEDNT [RPL6A] | 2.21 ± 0.068
2 | RFSPDEDFEHNNLSSMN [MCD1] | 2.69 ± 0.094
3 | RFVMPNQLLAALVAYTP [RRP6] | 1.83 ± 0.041
4 | RFYELEESLTVLNCLRT [YJR042W/NUP85] | 2 ± 0.14
5 | RGAWGKPHGLAARVDIG [RPL10] | 2.59 ± 0.064
6 | RGKDGKLHVAAKLPGHK [YGL100W/SEH1] | 3.31 ± 0.14
7 | RGTDIDRINYTETALMN [SRB5] | 3.02 ± 0.26
8 | RGVTKVGFGESNFTSII [SMC1] | 3.56 ± 0.19
9 | RHIKSKHEDLSLEQRQE [RPN4] | 2.97 ± 0.069
10 | RHTTGTGRMRYLKHVSR [RPL37A] | 3.14 ± 0.11
11 | RIANIEQNHLDNNYNTA [YDL088C/ASM4] | 3.11 ± 0.065
12 | RIGVLQARMMQQQSADH [NSL1] | 2.88 ± 0.062
13 | RIHRLARYYRTVAVLPP [RPS13] | 1.83 ± 0.088
14 | RIHVNPSYYGVRDTSPH [BRR2] | 1.96 ± 0.1
15 | RIKEMYWKLWIDEPFNL [FAS1] | 3.39 ± 0.086
16 | RILKNVSPNDNNSANNN [YMR153W/NUP53] | 2.75 ± 0.052
17 | RILNFFDKNTKTTPNTA [YMR153W/NUP53] | 2.42 ± 0.051
18 | RINSTDEDLHEFQIEDA [SRB8] | 2.86 ± 0.14
19 | RITDASLFQLSKLGKNL [GRR1] | 2.38 ± 0.045
20 | RITKSNEKSQAEQEKAK [LRP1] | 1.9 ± 0.075
21 | RKDKDAKFRLILIESRI [RPS13] | 1.52 ± 0.094
22 | RKEWFDIKAPSTFENRN [RPS1A] | 1.95 ± 0.093
23 | RKIKRLEKFLQGRDTSK [SRP72] | 2.79 ± 0.1
24 | RKPMGKRINFEKIKDIH [POP1] | 2.67 ± 0.051
25 | RKTLKEKAIPKDQRATT [RPO26] | 3.06 ± 0.057
26 | RLAEFKRRKLDLNNAVQ [SMC4] | 3.28 ± 0.27

Row | Sequence | protein stability index
27 | RLANLIDYKLRVLTQDG [SMB1] | 2.65 ± 0.089
28 | RLDILDPALLRPGRIDR [RPT6] | 2.79 ± 0.22
29 | RLGSEADAKAFLDSMAQ [FAS2] | 3.38 ± 0.091
30 | RLLAKDAMIAQRSKKIQ [DIS3] | 1.24 ± 0.1
31 | RLLEKSELPDIYSRDIG [SNF2] | 3.12 ± 0.14
32 | RLNPYAKVFAAEKLGSK [RPL4A] | 2.09 ± 0.14
33 | RLQFAQGSVRRLTVSAR [QCR2] | 1.33 ± 0.075
34 | RLQQQQAQAQAQANNNN [GAL11] | 2.03 ± 0.093
35 | RMAKLCARFLGNRGFSI [RPO31] | 2.35 ± 0.2
36 | RMKQYLKTKLLEEVEGS [RPB7] | 3.09 ± 0.13
37 | RMVRSIMWQLLDGVSYL [SSN3] | 1.27 ± 0.078
38 | RNARAARAAKIAPRPLD [RPL13B] | 2.86 ± 0.12
39 | RNESLKNNSSIRNVIMS [SRB8] | 1.81 ± 0.035
40 | RNLDSATLKEIKSIIEQ [SMC3] | 3.25 ± 0.078
41 | RNQRKGAGSIFTSHTRL [RPL2A] | 2.03 ± 0.054
42 | RNSVKLLSKLLLKHPFK [YCS4] | 2.41 ± 0.042
43 | RPLQKIMLLQLELGSCF [SIN4] | 1.41 ± 0.058
44 | RPYGVGLLIIGYDKSGA [PRE5] | 1.68 ± 0.12
45 | RQGLIHQGSGGSVMSAS [SMC3] | 2.75 ± 0.091
46 | RQGRSNRRGMLALSGTS [SNF5] | 2.89 ± 0.068
47 | RQILFKYPMYMQLEEEL [MED6] | 2.18 ± 0.064
48 | RQKKKPTSAQKSAVSHA [IRR1] | 1.34 ± 0.24
49 | RQLAGAIGYEPLSLTHR [DIS3] | 2.94 ± 0.057
50 | RQSKSSGKSNTSNDASN [ITC1] | 3.09 ± 0.095
51 | RQVYKPVLDNPFTNEAH [POP3] | 2.47 ± 0.073
52 | RRDDEVLVVRGSKKGQE [RPL26A] | 3.63 ± 0.087

Row | Sequence | protein stability index
53 | RREFKQYSLERNSPFWW [PRP8] | 3.06 ± 0.12
54 | RRFKNGFQTGSAKATSA [RPL37B] | 3.02 ± 0.066
55 | RRKDTSMVLFFVCLSCS [RPB9] | 1.3 ± 0.052
56 | RRREQTTYSVDDYYKEI [ISW2] | 2 ± 0.044
57 | RRSLKKQGRIKNATEEL [CSN12] | 3.2 ± 0.098
58 | RSATGAKRAQFRKKRKF [RPS8A] | 2.94 ± 0.1
59 | RSKGKQNRPYNHPELQG [RPC17] | 2.08 ± 0.047
60 | RSLEKVNNSVSKTGSVD [SSN2] | 2.38 ± 0.11
61 | RSMVRKWQTLIEANVTV [RPS1A] | 1.65 ± 0.053
62 | RSNKIKVVKTPGGILRA [RPL34A] | 2.64 ± 0.068
63 | RSPVFALNMLPSEILHL [GRR1] | 2.3 ± 0.049
64 | RSSRLHIVYSLLVNPDI [YML103C/NUP188] | 1.57 ± 0.047
65 | RSSYMLELVNTPLTENI [YCG1] | 3.11 ± 0.096
66 | RSTKDMIDAVFEQDSHL [SNF6] | 3.12 ± 0.068
67 | RTDATFIRVIGSELVQK [RPT1] | 3.2 ± 0.082
68 | RTLRRKGDINPEVSMIR [RPB2] | 3.11 ± 0.16
69 | RTLTAVHDKILEDLVFP [RPS7A] | 3.24 ± 0.13
70 | RTSTRGRGRGRGRGRGR [SNF2] | 3.41 ± 0.11
71 | RTVKNILVSVLPGTEKG [CSL4] | 1.65 ± 0.27
72 | RTYSKTYSTPKRPYESS [RPS9A] | 2.19 ± 0.055
73 | RVERSSRSTDNFHNSKK [RRI1] | 3.31 ± 0.076
74 | RVIDDNNRRRSRKRGGE [SIR3] | 3.57 ± 0.086
75 | RVISEYYSRITLLRLNE [RPN5] | 2.65 ± 0.076
76 | RVLEIQTSLVRMFEKNV [SKI6] | 3.35 ± 0.094
77 | RVSKDKKSGSLTFNSKN [FAS2] | 3.34 ± 0.084
78 | RVTGGMKVKADRDESSP [RPS14A] | 3.31 ± 0.077

Row | Sequence | protein stability index
79 | RYEEFADKVKLGRVRNH [RPC40] | 2.93 ± 0.064
80 | RYLDNLKQEIDRGLSIK [SNU114] | 3.02 ± 0.15
81 | RYNGGNDNIGANRSRFN [SMB1] | 3.24 ± 0.099
82 | RYRLLSDVSDFEGWGHE [RPN1] | 2.63 ± 0.12
83 | RYSNLVCKKADVDLHKR [RPS18A] | 3.05 ± 0.092
84 | RYVAGVQQRYTQSGGVR [PRE6] | 2.84 ± 0.23
85 | SAAASESDVAKQLASFG [RPL16B] | 2.76 ± 0.048
86 | SAAGMTAAIDSVVSQIE [FAS1] | 3.49 ± 0.23
87 | SAAMSIDKLSDVVMKAT [PRP8] | 2.46 ± 0.048
88 | SAASIPPQQTYHFPIFN [RPN4] | 2.55 ± 0.044
89 | SADREIQRTLMELLTQM [RPT4] | 2.93 ± 0.12
90 | SALQQIMYQQMLKYRRL [SNF2] | 1.51 ± 0.045
91 | SATFLRIVGSELIQKYL [RPT2] | 1.41 ± 0.066
92 | SAVVGPNGSGKSNVIDS [SMC4] | 3.13 ± 0.049
93 | SCAIHARIVRVRSREDR [RPS26A] | 2.41 ± 0.14
94 | SDDDNIGQSEELSDKEI [ISW2] | 3.31 ± 0.1
95 | SDKIPYVAPTKKEYIEL [SRB4] | 2.77 ± 0.1
96 | SDLINKDLVKNNVSFNA [FAS1] | 2.61 ± 0.068
97 | SDPVCLFVCNKDPDVPL [POP3] | 1.91 ± 0.053
98 | SDSYKVSLQNFSSSVSL [RRP40] | 2.69 ± 0.055
99 | SEDDSESGKVFIGRLPI [RPB2] | 3.36 ± 0.08
100 | SEGFEPTFSTHAQLLLS [PRP8] | 1.96 ± 0.038
101 | SEISIIDATLKEELLRD [RRP45] | 2.44 ± 0.094
